Data: patent US20180214568A1 (US Dept. of Health and Human Services, published 2018)
Blank lines part the entries; values can stand above or below the binder they belong to.

Molecular target: T1, mouse CD56 (mouse, UniProt P13595 20-711, limits assumed)
T1 construct: the construct is not described
Assay: ELISA on coated mouse CD56 ectodomain, IgG titrated, OD405
Method: Protein was coated on ELISA plate wells at 50 ng/well in PBS at 4° C. overnight. After blocking of unbound surface with 2% non-fat dried milk in PBST, serially diluted antibody solutions were added, and incubated for 2 hours at 37° C. The bound human antibodies were detected with goat anti-human Fc specific IgG conjugated with horseradish peroxidase.

T1 sequence (P13595 20-711 limits assumed): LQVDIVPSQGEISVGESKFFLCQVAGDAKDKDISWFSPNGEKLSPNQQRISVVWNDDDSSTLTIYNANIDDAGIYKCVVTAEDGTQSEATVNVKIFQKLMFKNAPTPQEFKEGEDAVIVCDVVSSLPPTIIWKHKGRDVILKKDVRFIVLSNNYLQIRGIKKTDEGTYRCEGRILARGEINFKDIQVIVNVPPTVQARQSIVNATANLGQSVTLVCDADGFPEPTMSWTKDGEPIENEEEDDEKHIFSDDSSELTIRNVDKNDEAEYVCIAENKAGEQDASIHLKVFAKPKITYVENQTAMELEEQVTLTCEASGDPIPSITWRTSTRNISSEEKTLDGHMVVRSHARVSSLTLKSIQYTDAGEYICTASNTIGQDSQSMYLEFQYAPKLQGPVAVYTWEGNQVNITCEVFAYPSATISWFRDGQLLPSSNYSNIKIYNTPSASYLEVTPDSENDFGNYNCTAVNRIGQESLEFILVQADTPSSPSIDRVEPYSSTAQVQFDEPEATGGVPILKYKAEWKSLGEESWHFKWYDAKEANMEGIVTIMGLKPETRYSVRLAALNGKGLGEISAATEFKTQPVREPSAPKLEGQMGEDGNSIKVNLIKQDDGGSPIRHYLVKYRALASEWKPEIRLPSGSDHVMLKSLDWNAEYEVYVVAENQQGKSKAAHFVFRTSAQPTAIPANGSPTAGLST

binding result: no binding (tested: 1000 nM)
B1: m900 IgG1 (antibody, V domains shown)
VH: not shown
VL: EIVLTQSPATLSLSPGERATLSCRASQSVSSYLAWYQQKPGQAPRLLIYDASNRATGIPARFSGSGSGTDFTLTISSVQAEDVGVYYCQQYHGTPTFGQGTKVEIKR

EC50 (read off the curve): ~0.08 nM
B2: m906 IgG1 (antibody, V domains shown)
VH: EVQLVQSGAEVKKPGSSVKVSCKASGGTFTGYYMHWVRQAPGQGLEWMGWINPNSGGTNYAQKFQGRVTMTRDTSISTAYMELSRLRSDDTAVYYCARDLSSGYSGYFDYWGQGTLVTVSS
VL: DVVMTQSPLSLPVTPGEPASISCRSSQSLLHSNGYNFLDWYLQKPGQSPQLLIYLGSNRASGVPDRFSGSGSGTDFTLKISRVEADDVGVYYCMQSLQTPWTFGHGTKVEIKR
